From the supplement of paper PMC9732359
± gives the uncertainty stated by the source.

Test: protein stability index of a GFP-peptide fusion (yeast GPS) (PSI 1-4); higher = more stable; sorted into four equal gates, so the index is relative within each strain
Outline: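 Each library plasmid carries Cherry plus GFP with a tiled 17-residue yeast protein peptide fused downstream, and the pooled library was carried in yeast. Mid-log cultures in leucine-free medium were sorted into four equal gates by GFP/Cherry ratio. Reads from Illumina sequencing of PCR-amplified plasmids from each gate were assigned to strains by barcodes. Per peptide, the protein stability index was computed as the summed products of gate read frequency and gate number.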

Row | Sequence | protein stability index (doa10∆) | protein stability index (pdr5∆) | protein stability index (san1∆) | protein stability index (ubr1∆)
1 | HYGLAVDIYTHFTSPIR [DIS3] | 1.56 ± 0.042 | 1.86 ± 0.052 | 1.61 ± 0.064 | 1.84 ± 0.039
2 | TPNMVNSEISNLPKDKS [SSN2] | 2.74 ± 0.08 | 3.08 ± 0.17 | 2.69 ± 0.087 | 2.9 ± 0.066
3 | GEPEAGNKALEDEEEFS [RPC34] | 3.18 ± 0.13 | 3.26 ± 0.26 |  | 
4 | LDEVDAALDLSHTQNIG [SMC2] | 3.07 ± 0.17 | 3.21 ± 0.1 | 3.02 ± 0.11 | 3.12 ± 0.067
5 | KVEIPLPNEAGRLEIFK [RPT4] |  | 3.09 ± 0.17 | 2.52 ± 0.18 | 2.74 ± 0.21
6 | HSVQETNKISPKDFSPN [SSN2] | 3.37 ± 0.094 | 2.68 ± 0.078 | 2.93 ± 0.054 | 3.11 ± 0.07
7 | KMVAKGLNDLVEQYKFR [BRR2] | 3.35 ± 0.12 | 3.17 ± 0.12 | 3.03 ± 0.11 | 3.14 ± 0.096
8 | YDKKKRVVVPQALRVLR [RPL16B] | 1.82 ± 0.043 | 2.09 ± 0.059 | 2.17 ± 0.084 | 1.82 ± 0.059
9 | DQTNHIESDSILNLLNI [ECM29] | 3.02 ± 0.064 | 3.04 ± 0.072 | 2.99 ± 0.077 | 3.03 ± 0.059
10 | DPALLRPGRIDRKIEFP [RPT6] | 3.18 ± 0.075 | 3.32 ± 0.077 | 3.05 ± 0.057 | 3.26 ± 0.048
11 | PFDQNLDSNNNNSNSNN [SWI1] | 2.65 ± 0.033 | 2.74 ± 0.037 | 2.839 ± 0.026 | 2.74 ± 0.027
12 | IAQGIDLVRDIDIDKLI [SRP72] | 1.65 ± 0.14 | 1.23 ± 0.12 | 1.58 ± 0.21 | 1.1 ± 0.16
13 | LLIEFPYLPKHYLVLLV [YJR042W/NUP85] | 1.98 ± 0.06 | 1.67 ± 0.053 | 2.07 ± 0.067 | 1.81 ± 0.047
14 | RKSAPVDSWDREFLKVD [SKP1] | 3.25 ± 0.13 | 3.27 ± 0.094 | 3.04 ± 0.1 | 3.19 ± 0.078
15 | WQELARSTDEFNGAQLK [RPT5] | 2.52 ± 0.16 | 2.73 ± 0.2 | 2.65 ± 0.24 | 2.29 ± 0.17
16 | KKVMPAIVVRQAKSWRR [RPL23A] | 2.84 ± 0.14 | 2.85 ± 0.088 | 2.64 ± 0.16 | 2.99 ± 0.063
17 | TLNPKTGHLFLKIIHTS [PRP8] | 2.44 ± 0.047 | 1.91 ± 0.048 | 1.77 ± 0.076 | 1.84 ± 0.048
18 | LIAEETNNKKLLEKANN [SMC3] | 2.41 ± 0.055 | 2.68 ± 0.075 | 2.38 ± 0.073 | 3.32 ± 0.063
19 | KNINIGKHSQEQNSSSA [SIR4] | 3 ± 0.072 | 3.13 ± 0.082 | 3.29 ± 0.1 | 3.25 ± 0.057
20 | YNNKVGVAASQGSMSER [SIR2] | 1.79 ± 0.066 | 2.04 ± 0.063 | 2.49 ± 0.12 | 1.85 ± 0.064
21 | TTESSDLKEGLQDLSRY [GRR1] | 3.24 ± 0.12 | 3.33 ± 0.11 | 3.33 ± 0.052 | 3.55 ± 0.045
22 | NSPSKGNSERPSAVAGF [YIL149C/MLP2] | 3.2 ± 0.087 | 3.45 ± 0.1 | 3.1 ± 0.089 | 3.16 ± 0.11
23 | MSTESALSYAALILADS [RPP1A] | 1.75 ± 0.062 | 1.97 ± 0.073 | 1.72 ± 0.073 | 1.83 ± 0.046
24 | RFRKLTSQEINDRLEAL [PRE8] | 3.07 ± 0.14 | 3.01 ± 0.089 | 2.52 ± 0.24 | 2.91 ± 0.11
25 | NEKKTETNAKPFSFSSA [YLR335W/NUP2] | 3.32 ± 0.11 | 3.28 ± 0.088 | 3.33 ± 0.041 | 3.36 ± 0.079
26 | NTHYHADYRLILTGTPL [SNF2] | 1.31 ± 0.11 | 1.71 ± 0.097 | 1.39 ± 0.12 | 1.75 ± 0.076

Row | Sequence | protein stability index (doa10∆) | protein stability index (pdr5∆) | protein stability index (san1∆) | protein stability index (ubr1∆)
27 | NNIDQSLILKESGSTPI [YAR002W/NUP60] | 1.85 ± 0.085 | 1.78 ± 0.1 |  | 1.61 ± 0.064
28 | MGQGLCNNINKGLKEND [BRR2] | 3.13 ± 0.095 | 3.57 ± 0.15 | 3.2 ± 0.071 | 3.39 ± 0.1
29 | AHLYMLEPSGSYWGYKG [PRE10] | 1.66 ± 0.069 | 1.7 ± 0.13 | 2.06 ± 0.21 | 1.84 ± 0.082
30 | QLDFTEFDEQYGTRPLV [SNF2] | 3.26 ± 0.048 | 3.02 ± 0.047 | 3.21 ± 0.039 | 2.81 ± 0.032
31 | DLRLIKVPQQAAGKRIS [SMC1] | 1.36 ± 0.099 | 1.31 ± 0.2 | 1.1 ± 0.13 | 1.15 ± 0.07
32 | AILQEKILSILNRSHFA [ECM29] | 1.87 ± 0.05 | 2.15 ± 0.052 | 2.27 ± 0.054 | 2.35 ± 0.051
33 | NNDFKLSIDKVLKKPNR [RET1] | 2.06 ± 0.092 | 2.84 ± 0.12 | 3.01 ± 0.1 | 2.94 ± 0.13
34 | ISKQRTFAVILFLIIQC [YMR129W/POM152] | 1.38 ± 0.051 | 1.38 ± 0.067 | 1.32 ± 0.087 | 1.51 ± 0.058
35 | VRIFTKIESEDDYILSG [SRB4] |  |  |  | 2.79 ± 0.092
36 | GLVNPKTVQSMTQRAIQ [SWI3] | 3.25 ± 0.14 | 2.25 ± 0.14 | 2.39 ± 0.14 | 2.05 ± 0.092
37 | MFILSKIADLVRIPPDQ [RPC25] |  | 2.69 ± 0.22 |  | 
38 | SAENRDEKDYLTNQQPK [CSE2] | 2.76 ± 0.063 | 2.79 ± 0.062 | 2.54 ± 0.048 | 2.77 ± 0.038
39 | VSTLIAGFDPRDDEPKL [PRE6] |  |  | 3.12 ± 0.077 | 
40 | HQQRMSRTAADILLRLC [YCG1] | 2.48 ± 0.29 | 1.63 ± 0.2 |  | 2.66 ± 0.1
41 | DLTQLLEKERSILDDIK [SMC4] | 3.22 ± 0.14 | 2.98 ± 0.08 | 2.66 ± 0.13 | 3.16 ± 0.043
42 | AIGTKRYDSNSGGEREI [RPT2] | 3.28 ± 0.22 | 3.54 ± 0.11 | 3.39 ± 0.12 | 3.5 ± 0.13
43 | GRYLLTPPDDLHPYVPS [SRB8] | 2.36 ± 0.057 | 2.41 ± 0.056 | 2.55 ± 0.061 | 2.66 ± 0.039
44 | LQIAQLTLKHRQNKVQH [RPN10] | 2.26 ± 0.088 | 2.23 ± 0.071 | 1.74 ± 0.1 | 1.88 ± 0.065
45 | LSKRQKRKSAQEPELSL [SMC4] | 3.17 ± 0.11 | 3.15 ± 0.078 | 3.09 ± 0.097 | 3.4 ± 0.1
46 | QTMQLIKNVQDLLILTR [SRB6] | 1.51 ± 0.087 | 1.8 ± 0.091 |  | 2.09 ± 0.086
47 | PSNFEINAEEIVDFTLP [PRP8] | 2.91 ± 0.083 | 3.18 ± 0.082 | 3 ± 0.064 | 3.02 ± 0.049
48 | EEYKKSLYAYCHSKLRG [GRR1] | 2.29 ± 0.074 | 2.31 ± 0.07 | 2.42 ± 0.09 | 2.44 ± 0.075
49 | WVFSYLRWFELKPKLYY [SIR3] | 1.93 ± 0.081 | 1.96 ± 0.071 | 2.5 ± 0.19 | 2.49 ± 0.054
50 | NEKRYATASAIAATAVA [RPL4A] | 2.29 ± 0.087 | 1.53 ± 0.056 | 1.74 ± 0.14 | 1.5 ± 0.066
51 | LRELSCCINAAFLALVD [RRP46] | 2.38 ± 0.059 | 2.81 ± 0.074 | 2.88 ± 0.051 | 2.65 ± 0.065
52 | EYQVIGRRLPTESVPEP [RPL20A] | 3.08 ± 0.11 | 3.21 ± 0.1 | 3.1 ± 0.13 | 3.15 ± 0.06
